Data on one substance can be found in patent EP3574020B1.

The experiment addresses commercially-prepared stable A-beta42 Oligomers (SynAging) (human). Briefly: SPR; antibody covalently immobilized, stable A-beta42 oligomers at 1 microM. For orientation: Surface plasmon resonance follows binding to a sensor surface in real time, without labels.

Sequence of commercially-prepared stable A-beta42 Oligomers (SynAging) (human) (peptide, as listed by the source): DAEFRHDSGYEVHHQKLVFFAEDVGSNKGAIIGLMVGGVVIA

negative control IgG1 (antibody) displayed a binding response units (BRU), mean of 2.5 BRU.
